From publication doi:10.1101/2023.08.30.554051

Target: human skeletal myosin IIa subfragment-1 (S1), oligonucleotide-labeled, on DNA origami-based thick filament (human)
Experiment: high-speed atomic force microscopy

Substance “actin filament (from UniProt P68135 1-377) (natural protein)” has a duty ratio of 0.87, a mean detachment time of 0.17 s and a time constant of the attachment time of 1.1 s. The time constant of the detachment time (fast) was 0.063 s and the time constant of the detachment time (slow) was 0.68 s.
